Experimental data reported in patent publication US20210246223A1 (CRD PHARMACEUTICALS, published 2021).

Assays:
[1] = biological target: T1, EGFR (UniProt P00533 25-645, limits assumed); assay: ELISA, plate coated with 1 µg/ml EGFR, increasing concentration of 29Z6
T1 construct: Coated on the ELISA plate at 1 µg/ml and also used in the western blot; also called HER1; ErbB1
Experimental: (§1) ELISA plate was coated with 1 μg/ml of EGFR, HER2, or extracellular domain of HER3. The ELISA was incubated with increasing concentration of 29Z6 followed by incubation with HRP-goat-anti mouse IgG to detect 29Z6 antibody binding. […] Confirmation of the binding specificity was undertaken using western blotting. Only HER3 was bound to 29Z6 while EGFR or HER2 didn't (FIG. 10).

[2] = biological target: T2, HER2 (UniProt P04626 23-652, limits assumed); assay: ELISA, plate coated with 1 µg/ml HER2, increasing concentration of 29Z6
T2 construct: Coated on the ELISA plate at 1 µg/ml and also used in the western blot; also called ErbB2; Neu
Experimental: as §1

[3] = biological target: T3, HER3-Fc fusion comprising the extracellular domain (aa 20-643) of human HER3 (human, UniProt P21860 20-643); assay: ELISA, HER3-Fc coated at 1 µg/ml, serial dilution of IgG 29Z6, anti-mouse Fc-HRP detection
T3 construct: range 20-643; also called human HER3-Fc fusion protein
Experimental: Antigen binding of IgG 29Z6 was analyzed in ELISA using immobilized HER3-Fc fusion comprising the extracellular domain (aa 20-643) of human HER3. The HER3-Fc fusion protein was coated onto polystyrene microtiter plates at 1 μg/ml in PBS. Remaining binding sites were blocked with PBS, 2% skimmed milk (MPBS). Plates were then incubated with a serial dilution of IgG 29Z6 in MPBS. After washing, bound antibody was detected with an HRP-conjugated anti-mouse Fc antibody and TMB, H₂O₂ as substrate.

[4] = biological target: T4, extracellular domain of HER3 (human, UniProt P21860 20-643); assay: SPR (Biacore 3000), HER3 extracellular domain amine-coupled on CM5, 29Z6 mAb as analyte, 1:1 model, 25° C.
T4 construct: extracellular domain; also called purified extracellular domain of HER3; HER3 receptor ectodomain
Experimental: (§2) The binding kinetics of the 29Z6 mAb was analysed by surface plasmon resonance (SPR) using a Biacore3000 optical sensor platform equipped with research-grade CM5 sensor (GE Healthcare Bio-Sciences Corp., Piscataway, N.J.). Purified extracellular domain of HER3 was immobilized on the sensor chip surface of a carboxylated dextran-coated gold film using the standard amine coupling kit following the manufacturer's protocol. Briefly, 70 μL of a mixed solution of NHS/EDC (1:1, v/v) was injected to activate the carboxylated dextran, followed by manual injection of protein in 10 mM NaOAc (pH 4.5) until the desired surface density was reached. Ethanolamine 1 M in water (pH 8.5) was then injected to de-activate residual NHS-esters on the sensor chip. […] Kinetic data were evaluated by globally fitting the sensorgrams to a simple 1:1 interaction model using the Biacore software BiaEvaluation version 4.1 (GE Healthcare Bio-Sciences Corp.). The equilibrium KDs were determined from the resulting kinetic association and dissociation rates (kd/ka), and a minimum of nine independent runs were used to generate the reported standard deviations. A 1:1 binding model was used together with experimentally determined RMax as fixed parameter to determine association rate constant (ka), dissociation rate constant (kd), and equilibrium dissociation constant (KD). […]

[5] = biological target: T4, extracellular domain of HER3; assay: SPR (Biacore 3000), HER3 extracellular domain amine-coupled on CM5, 29Z6 mAb 0.1-300 nM as analyte, 1:1 model, 25° C.
Experimental: as §2

T4 sequence (P21860 20-643): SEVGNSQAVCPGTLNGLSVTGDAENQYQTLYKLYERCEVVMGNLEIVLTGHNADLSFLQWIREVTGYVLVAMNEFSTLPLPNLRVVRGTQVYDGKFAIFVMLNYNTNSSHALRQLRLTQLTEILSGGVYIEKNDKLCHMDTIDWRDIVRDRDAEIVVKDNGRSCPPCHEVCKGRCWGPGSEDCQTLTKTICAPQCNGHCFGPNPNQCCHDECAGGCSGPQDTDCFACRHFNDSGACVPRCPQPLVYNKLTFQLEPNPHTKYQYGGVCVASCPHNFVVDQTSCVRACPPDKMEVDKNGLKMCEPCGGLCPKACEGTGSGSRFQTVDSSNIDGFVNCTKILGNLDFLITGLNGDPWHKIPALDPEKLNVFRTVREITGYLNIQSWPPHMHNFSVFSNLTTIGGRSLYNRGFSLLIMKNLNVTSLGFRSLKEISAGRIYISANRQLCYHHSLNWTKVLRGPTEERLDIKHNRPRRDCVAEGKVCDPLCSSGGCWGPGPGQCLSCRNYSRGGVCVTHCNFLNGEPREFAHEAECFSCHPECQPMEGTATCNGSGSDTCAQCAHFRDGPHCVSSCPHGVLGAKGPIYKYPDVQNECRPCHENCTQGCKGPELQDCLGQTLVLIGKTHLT
T3 sequence (P21860 20-643 limits assumed): as the sequence (P21860 20-643) above

- binding result [1]: no binding
- binding result [2]: no binding
- EC50 [3]: 0.88 nM
- koff [4]: 0.000295 s⁻¹
- kon [4]: 188000 M⁻¹ s⁻¹
- Kd [5]: 0.8 nM
B1: anti-HER3 monoclonal antibody 29Z6 (antibody, mouse IgG2a, kappa, V domains shown)
VH: EVQLQESGPSLVKPSQTLSLTCYVTGDSITSGYWNWIRKFPGNKLEYMGYINYSGSTYYNPSLKSRISIIRDTSQNHYNLLLNSVTTEDTATYYCARLGTYYRYAGAMDYWGQGTSVTVSS
VL: DDVLTQTPLSLPVSLGDQASISCRSSQSLVHSNGNTYLHWYLQKPGQSPKLLIYKVSNRFSGVPDRFSGSGSGTDFTLKISRVEAEDLGVYFCSQSTHVPYTFGGGTKLEIKR
notes: also called IgG 29Z6; 29Z6 mAb
